# Source: patent publication US20250066490A1, “ANTI-CD70 ANTIBODIES, CONJUGATES THEREOF AND METHODS OF USING THE SAME” (ProfoundBio US Co., priority 2021, published 2025)
# T1: CD70 ECD (Homo sapiens, UniProt P32970)
# T1 sequence (P32970 39-193 limits assumed): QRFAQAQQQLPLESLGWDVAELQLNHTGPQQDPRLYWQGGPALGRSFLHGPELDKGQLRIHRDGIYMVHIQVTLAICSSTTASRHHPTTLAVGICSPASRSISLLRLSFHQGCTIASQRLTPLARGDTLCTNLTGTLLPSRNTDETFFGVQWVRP
# T2: rat CD70 extra-cellular domain (ECD) (Rattus norvegicus, UniProt M0R613)
# T2 construct: human, rat, or mouse CD70 extra-cellular domain (ECD) linked to His tag; His tag; purchased ACRO systems
# T2 sequence (M0R613 1-194): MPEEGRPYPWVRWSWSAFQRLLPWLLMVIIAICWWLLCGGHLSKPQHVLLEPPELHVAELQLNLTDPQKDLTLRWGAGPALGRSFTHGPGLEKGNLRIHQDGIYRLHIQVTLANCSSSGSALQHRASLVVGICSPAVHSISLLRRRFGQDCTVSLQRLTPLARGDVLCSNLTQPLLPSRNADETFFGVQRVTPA
# T3: human CD70 extra-cellular domain (ECD) (Homo sapiens, UniProt P32970)
# T3 construct: human, rat, or mouse CD70 extra-cellular domain (ECD) linked to His tag; His tag; purchased ACRO systems
# T3 sequence (P32970 39-193 limits assumed): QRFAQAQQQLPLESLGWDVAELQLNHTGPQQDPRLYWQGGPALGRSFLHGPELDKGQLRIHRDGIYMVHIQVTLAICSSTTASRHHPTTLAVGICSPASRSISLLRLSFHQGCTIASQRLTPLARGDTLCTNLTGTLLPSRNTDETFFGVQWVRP
# T4: mouse CD70 extra-cellular domain (ECD) (Mus musculus, UniProt O55237)
# T4 construct: human, rat, or mouse CD70 extra-cellular domain (ECD) linked to His tag; His tag; purchased ACRO systems
# T4 sequence (O55237 45-195): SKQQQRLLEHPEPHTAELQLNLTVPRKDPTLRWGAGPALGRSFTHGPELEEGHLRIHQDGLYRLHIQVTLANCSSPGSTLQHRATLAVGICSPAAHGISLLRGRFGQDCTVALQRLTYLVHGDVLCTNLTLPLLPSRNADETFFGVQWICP
# Tests used:
# [1] = Hydrophobic interaction chromatography (HIC); assay type: physicochemical; details: full IgG; for Retention time: hydrophobicity by HIC
# Protocol: Antibodies were purified from cleared cell culture supernatants using Protein A chromatography (Protein A resin slurry, 4.5 mL, Bogen, Cat #18-0010-02). Briefly, supernatants were prepared for affinity chromatography and loaded onto the columns and allowed to flow completely through the resin. The columns were washed with binding buffer containing 0.15M NaCl and 0.2M PB, PH7.0. Antibody was eluted with elution buffer containing 0.15M NaCl, 0.1M Glycine and 0.2M PB, PH 3.0. Fractions were collected and neutralized by the addition of 1/10 volume of 1M Tris, PH9.0. The fractions were dialyzed for 2 hours against 1×PBS. Purified antibody was quantified by absorbance at A280. Samples from each step of the protein A chromatography were applied onto 12% SDS-PAGE gels for reduced and non-reduced electrophoresis. The hydrophobicity was assessed with hydrophobic interaction chromatography (HIC) on a TSK gel Butyl-NPR, 4.6×100 mm with Butyl-NPR (Tosoh corporation) using a Waters HPLC 2695 system.
# CD70 ECD = target: T1, CD70 ECD; assay: Biacore affinity measurement on immobilized CD70 ECD; assay type: binding; details: 25° C., CD70 immobilized
# Protocol: The immobilization of antigen CD70 ECD was performed at 25° C. with HBS-EP as the running buffer. Sensor chip surface of flow cells 1, 4 were activated by freshly mixed 50 mmol/L N-Hydroxy succinimide (NHS) and 200 mmol/L 1-ethyl-3-(3-dimethylaminopropyl) carbodiimide hydrochloride (EDC) for 420s (10 μL/min). Afterwards, CD70 antigen diluted in 10 mmol/L NaAC (pH 4.5) was injected into flow cell 4 to achieve conjugation of the appropriate Response Unit, while flow cell 1 was set as a blank. After the amine coupling reaction, the remaining active coupling sites on chip surface were blocked by 420s injection of 1 mol/L ethanolamine hydrochloride.
# The assay was performed at 25° C. and the running buffer was HBS-EP. Diluted antibodies were injected over the surface of flow cells 1 and 4 during the association phase, followed by injecting running buffer as the dissociation phase. All the data were processed using Biacore T200 Evaluation software version 3.1. Flow cell 1 and a blank injection of buffer in each cycle were used as a double reference for Response Units subtraction. Kinetic data of the interaction between the antibodies and CD70 antigen were obtained through affinity measurement.
# [2] = tested on: 786-O, Caki-1, U251 and DBTRG-05MG cells; assay: Antibody binding by flow cytometry, statements across all four tumor cell lines; set-up: species or system human; details: range over the four cell lines
# Protocol: The lead antibodies were tested for binding to renal carcinoma cells and glioblastoma cells expressing CD70 on the cell surface by flow cytometry. Cell lines 786-O (ATCC® CRL-1932™, provided by COBIOER), Caki-1 (ATCC® HTB-46™, provided by COBIOER), U251 and DBTRG-05MG (ATCC® CRL-2020™, provided by COBIOER) were each tested for antibody binding. 786-O cells were cultured with RPMI 1640 medium (Gibco, Cat #11875093) containing of 10% FBS (Gibco, Cat #10099141) while Caki-1 cells were cultured with McCoy's 5a Modified medium (Gibco, Cat #16600082) containing 10% FBS. U251 cells were cultured with MEM medium containing of 10% FBS and 1% NEAA+1 mM sodium pyruvate. DBTRG-05MG cells were cultured with DMEM medium (Gibco, Cat #C11995500BT) containing of 10% FBS. Each of the lead antibodies and the controls were incubated for 30 mins with the different cell lines (3×10^5 cells per well) in 0.2 ml FACS buffer (1×PBS with 0.1% BSA) at 4° C. Then, the cells were pelleted, washed, and incubated at 4° C. for 30 mins with 100 μl of 1:200 diluted PE-conjugated anti human Fc (Abcam, Ab98596) in FACS buffer. The cells were pelleted again, washed with PBS, resuspended in FACS buffer and analyzed by flow cytometer (Beckman, CytoFLEX).
# [3] = target: T2, rat CD70 extra-cellular domain (ECD); assay: Biolayer interferometry (BLI), rat CD70; assay type: binding
# Protocol: (§1) Recombinant proteins consisting of human, rat, or mouse CD70 extra-cellular domain (ECD) linked to His tag was purchased (from ACRO systems). 69A7 and 2E7 (20 nM) were immobilized on anti-human IgG Fc biosensor tips (ForteBio). Binding assays using one concentration (100 nM) of recombinant protein in solution were performed using Octet RED (ForteBio). Association time was set at 180s and dissociation time was set at 300s. Binding affinity was calculated using ForteBio Data Acquisition 6.3 software. Affinity was derived by fitting the kinetic data to a 1:1 Langmuir binding model utilizing global fitting algorithms. […] Binding assays for 2E7 using multiple dilutions (from 200 nM down to 3.13 nM) of species' recombinant CD70 ECD proteins in solution were also performed using the same method.
# [4] = target: T3, human CD70 extra-cellular domain (ECD); assay: Biolayer interferometry (BLI), human CD70; assay type: binding
# Protocol: as §1
# [5] = target: T4, mouse CD70 extra-cellular domain (ECD); assay: Biolayer interferometry (BLI), mouse CD70; assay type: binding
# Protocol: as §1
# [6] = one concentration (100 nM), Table 9
# [7] = Hu CD70 100 nM, one concentration
Rmax (RU) (CD70 ECD),ka (CD70 ECD) [M⁻¹ s⁻¹],kd (CD70 ECD) [s⁻¹],EC50 relative to that of antibody 69A7 [2],"Response ([3]; Rat CD70 100 nM, one concentration, *Response below range of quantification)","ka ([3]; Rat CD70 100 nM, one concentration, response below range of quantification) [M⁻¹ s⁻¹]","cross-reactivity to rat CD70 [3, 6]","Response [4, 7]","ka [4, 7] [M⁻¹ s⁻¹]","Kd ([4]; human CD70, one concentration (100 nM), read-out: equilibrium dissociation constant (KD)) [nM]","Response ([5]; MS CD70 100 nM, one concentration, *Response below range of quantification)","ka ([5]; MS CD70 100 nM, one concentration, response below range of quantification) [M⁻¹ s⁻¹]","cross-reactivity to mouse CD70 [5, 6]",Molecule,hydrophobicity compared with the parent antibody 69A7 ([1]; HIC),Retention time [1] [min]
45.47,51000,0.00197,1.7-2.2 times,–,–,–,–,–,–,–,–,–,"2A4P0L1: new VH/VL combination derived from the VH of 2A4 and the VL of 2D2 (antibody, V domains shown) VH: QVQLQESGPGLVKPSETLSLTCTVSGGSVSSDYYYWSWIRQPPGKGLEWLGYIYYSGSTNYNPSLKSRVTISVDTSKNQFSLKLRSVTTADTAVYYCARGDGDYGGNVFPYWGQGTLVTVSS VL: EIVLTQSPATLSLSPGERATLSCRASQSVSSYLAWYQQKPGQAPRLLIFDASNRATGIPARFSGSGSGTDFTLTISSLEPEDFAVYYCQQRLKFPLTFGGGTKVEIK",slightly more hydrophobic than the parent antibody 69A7,9.56
38.01,6330,0.00198,–,*0.0198,94250,no cross-reactivity,0.3334,338700,2.9,*0.0113,1494,no cross-reactivity,"69A7: parent anti-CD70 antibody (U.S. Pat. No. 8,124,738B2), VH/VL SEQ ID NOs: 1 and 2 (antibody, V domains shown, Synthetic 69A7 VH amino acid sequence; Synthetic 69A7 VL amino acid sequence) VH: QVQLQESGPGLVKPSETLSLTCTVSGGSVSSDYYYWSWIRQPPGKGLEWLGYIYYSGSTNYNPSLKSRVTISVDTSKNQFSLKLRSVTTADTAVYYCARGDGDYGGNCFDYWGQGTLVTVSS VL: EIVLTQSPATLSLSPGERATLSCRASQSVSSYLAWYQQKPGQAPRLLIFDASNRATGIPARFSGSGSGTDFTLTISSLEPEDFAVYYCQQRSNWPLTFGGGTKVEIK",–,8.83

# More lines, now with the values behind:
Molecule,Rmax (RU) (CD70 ECD),ka (CD70 ECD) [M⁻¹ s⁻¹],kd (CD70 ECD) [s⁻¹],EC50 relative to that of antibody 69A7 [2],"Response ([3]; Rat CD70 100 nM, one concentration, *Response below range of quantification)","ka ([3]; Rat CD70 100 nM, one concentration, response below range of quantification) [M⁻¹ s⁻¹]","cross-reactivity to rat CD70 [3, 6]","Response [4, 7]","ka [4, 7] [M⁻¹ s⁻¹]","Kd ([4]; human CD70, one concentration (100 nM), read-out: equilibrium dissociation constant (KD)) [nM]","Response ([5]; MS CD70 100 nM, one concentration, *Response below range of quantification)","ka ([5]; MS CD70 100 nM, one concentration, response below range of quantification) [M⁻¹ s⁻¹]","cross-reactivity to mouse CD70 [5, 6]",hydrophobicity compared with the parent antibody 69A7 ([1]; HIC),Retention time [1] [min]
"2A4: anti-CD70 antibody clone, VH SEQ 3 and VL SEQ 4; scFv and full human IgG1/kappa (antibody, V domains shown) VH: QVQLQESGPGLVKPSETLSLTCTVSGGSVSSDYYYWSWIRQPPGKGLEWLGYIYYSGSTNYNPSLKSRVTISVDTSKNQFSLKLRSVTTADTAVYYCARGDGDYGGNVFPYWGQGTLVTVSS VL: EIVLTQSPATLSLSPGERATLSCRASQSVSSYLAWYQQKPGQAPRLLIFDASNRATGIPARFSGSGSGTDFTLTISSLEPEDFAVYYCQQRSNWPLTFGGGTKVEIK",–,–,–,–,–,–,–,–,–,–,–,–,–,–,9.06
"Vorsetuzumab (antibody, V domains shown, Synthetic h1F6 VH amino acid sequence; Synthetic h1F6 VL amino acid sequence) VH: QVQLVQSGAEVKKPGASVKVSCKASGYTFTNYGMNWVRQAPGQGLKWMGWINTYTGEPTYADAFKGRVTMTRDTSISTAYMELSRLRSDDTAVYYCARDYGDYGMDYWGQGTTVTVSS VL: DIVMTQSPDSLAVSLGERATINCRASKSVSTSGYSFMHWYQQKPGQPPKLLIYLASNLESGVPDRFSGSGSGTDFTLTISSLQAEDVAVYYCQHSREVPWTFGQGTKVEIK",19.27,45100,0.00236,–,–,–,–,–,–,–,–,–,–,–,–
